From patent US10556936B2, “Immunogenic proteins and fragments thereof from allergenic mites” (ALK-ABELLÓ A/S, priority 2016, dated 2020) come the findings set out here.

Common to all, as to assay type: cell-based, human
The test system of data set [1] is PBMC cells obtained from mite allergic patients and non-allergics. Nature of the data set: Ex vivo stimulation of PBMC: cytokine production (IFN-gamma, IL-9, IL-10, IL-17, IL-31). An excerpt:
(§1) This example relates to the further testing of immunogenicity of the proteins identified in Example 1. Their ability to react with IgE antibodies in HDM allergic individuals, to stimulate in vitro T cell proliferation of HDM allergic individuals and non-allergics, and to stimulate ex vivo cytokine production of HDM allergic individuals and non-allergics. The following tests were used: • Basophil Activation Test (BAT) was used as a predictive in vitro assay for indication of safety/immediate hypersensitivity reactions. BAT test was carried out using blood from HDM allergic individuals (n=14), and by use of different concentrations of test proteins or the major house dust mite allergens (Der p 1, Der f 1, Der p 2 or Der f 2, e.g. a concentration of 1, 10, 100 or 1000 ng/ml. • In vitro T cell reactivity determined in T cell lines obtained from HDM allergic individuals (n=30) and non-allergics (n=8): Determined by establishment of HDM specific T-cell lines according to standard methods. In short, PMBCs from HDM allergic donors were cultured for 3 weeks in the presence of house dust mite allergen extract. The responses to proteins at a concentration of 0.5 ug/ml or 2 ug/ml of the test protein or the major house dust mite allergens (Der p 1, Der f 1, Der p 2 or Der f 2) were assessed by proliferation in a standard 72 h T cell proliferation assay, as described in Henmar H et al., Clin Exp Immunol 2008; 153(3):316-23. […]. • Ex vivo stimulation of PBMC cells obtained from mite allergic patients (n=16) and non-allergics (n=6): Determined by measuring the production of the cytokines; IFN-gamma, IL-9, IL-10, IL-17 and IL-31 following stimulation with test protein in concentration up to 10 ug/ml. Freshly isolated PBMC 5×10^6/ml were cultured with a test protein for 5 days and cell supernatant were harvested and stored at −80° C. Cytokines of the supernatants were measured using ProcartaPlex Multiplex Immunoassays with MAGPIX Multiplex Reader according manufactory protocol.

Data set [2] relates to T cell lines obtained from HDM allergic individuals and non-allergics. Nature of the data set: In vitro T cell proliferation test in T cell lines (Example 3). Particulars: 0.5 or 2 ug/ml, 72 h; for % responders of in-vitro T cell proliferation test, Allergic: T cell lines from HDM allergic individuals (n=30); for % responders of in-vitro T cell proliferation test, Non-allergics: T cell lines from non-allergics (n=8).
Description: as §1

Data set [3] deals with basophils in whole blood from HDM allergic donors. Nature of the data set: Basophil Activation Test (BAT). Particulars: blood from HDM allergic individuals (n=14). The protocol:
Basophil Activation Test (BAT) was used as a predictive in vitro assay for indication of safety/immediate hypersensitivity reactions. The BAT assay is a widely used diagnostic test that is also used for evaluation of allergenicity of allergen derived components. In short: whole blood from HDM allergic donors was stimulated for 1 h with the proteins, and the increased expression of activation markers on the surface of basophils were measured by flow cytometry. The BAT test was carried out using different concentrations of the proteins and the allergens Der p 2 and Der p 1 was used as controls and tested in the same concentration rates.
as §1

B1: A013: house dust mite protein; SEQ ID NO: 36 (Der f), 37 (Der p), 311 (Blo t) (protein)
chain: DTPANCTYEDIKGLWLFEETEPIKDRWEKCPEHQQQREKYSKKIFIRLDFPNVAVDKFGNIGEWTMIYNQGFEVKINYRKYFAFSAYERKSENNVLSYCHKTQPGWSHDVLGNNWACYVGHKVNNWNDDDVSKTTTVGAEKFPVKQHSERELYLQNINVEHILSQKHIDHLNSQQKSWKAIVYPDLQSKSIEHLIQMAGGRKSRIINRPKPLRATEQQKQLARSLPESFDWRNLNGIDYVSPVRDQGKCGSCYTFASMAMLESRIRIQTNNTFKPIFSTQEVVDCSEYSQGCDGGFSYLIAGKYAQDFGVIDESCYPYKGVTGKCQNQQNFNQTNEKCKQRTYTIDYKYVGGYFGACNEEAMQIELVQNGPIAVGFEVYGDFFGYSEGIYSHQPSNESNDQHQQIKAEFNPFEMTNHAVLIVGYGKDKKTGEKYWIVKNSWGKQWGMDGYFWMRRGTDECAIESLAMAATPIPN
Consider B1, for which, in data set [1], the “% HDM allergic individuals with cytokine production in ex-vivo T cell assay IL-5” value turned out to be 50%, the “% HDM allergic individuals with cytokine production in ex-vivo T cell assay IL-9” value is on record as 25%, the “% HDM allergic individuals with cytokine production in ex-vivo T cell assay IL-10” value was found to be 38% and the “% HDM allergic individuals with cytokine production in ex-vivo T cell assay IL-13” value is given as 38%. Further, in data set [1], the “% HDM allergic individuals with cytokine production in ex-vivo T cell assay IL-17” value amounted to 6%, the “% HDM allergic individuals with cytokine production in ex-vivo T cell assay IL-31” value is listed as 0%, the “% HDM allergic individuals with cytokine production in ex-vivo T cell assay INF-g” value is 0% and the “% non-allergic individuals with cytokine production in ex-vivo T cell assay IL-5” value worked out at 0%. For the same molecule, in data set [1], the “% non-allergic individuals with cytokine production in ex-vivo T cell assay IL-9” value worked out at 0%, the “% non-allergic individuals with cytokine production in ex-vivo T cell assay IL-10” value is 0%, the “% non-allergic individuals with cytokine production in ex-vivo T cell assay IL-13” value is 0% and the “% non-allergic individuals with cytokine production in ex-vivo T cell assay IL-17” value turned out to be 0%. Further, in data set [1], the “% non-allergic individuals with cytokine production in ex-vivo T cell assay IL-31” value is listed as 0% and the “% non-allergic individuals with cytokine production in ex-vivo T cell assay INF-g” value is recorded as 0%. Also, in data set [2], the “% responders of in-vitro T cell proliferation test, Allergic” value was 18% and the “% responders of in-vitro T cell proliferation test, Non-allergics” value (“% responders … Non-allergics” for short) is reported as 13%. In addition, the “# of individuals of 14 with positive BAT test” value in data set [3] (1 ng/ml) came out at 0. In addition, in data set [3] (10 ng/ml), the “# of individuals of 14 with positive BAT test” value is reported as 0. Moreover, the “# of individuals of 14 with positive BAT test” value in data set [3] (100 ng/ml) is 0. Further, the “# of individuals of 14 with positive BAT test” value in data set [3] (1000 ng/ml) was 0.

B2: A011: house dust mite protein; SEQ ID NO: 39 (Der f), 40 (Der p), 309 (Blo t) (protein)
chain: KSAPEGCFRAAVLDHVHQTDARHLSNTAKIIDLNFKVYEDAAALAKKQGADIIVFPENGLIYSILSREKADEFASDIPDAEVNACTLDSKFVYNRLACLAQKHQMFVVADLIDRKSCEELGINNVSDSCPADKKFLFNTAVLFDRQGKLLGRYHKMHLFGEISMNPPPKPELLVIDTELGRLGMQICFDMIFKTPGYLLAQENKFDTMLFPTWWFDESPMLSSSQYQMAWAFGNNVTLLASNIHRIEVGSRGSGIYVGPHRTLAAALYDDSVERLVLANVPIKPKETDQSACPLDSEIIEVPQQIPIPKSVKYHHQNLNLKDVTLLQLSSNESEVHLCHKGVCCQFEYRLAMKDQPQESWVDRVPLLANMLHYLTPEERYYLLIANRTRPGAYPWSEEFCAVVVCPSSRWNFGKMQKDCSKIGSNQELSSRFVHAKLRGKFSEDTAVYPSAVGSKNQLIYPENKWKFWKVNVPNEPEYFIELGAKDNSESRAMELGALVLYGRNYNRDPRYEQKALPIN
In the case of B2, in data set [1], the “% HDM allergic individuals with cytokine production in ex-vivo T cell assay IL-5” value was determined as 25%, the “% HDM allergic individuals with cytokine production in ex-vivo T cell assay IL-9” value is given as 6%, the “% HDM allergic individuals with cytokine production in ex-vivo T cell assay IL-10” value came to 13% and the “% HDM allergic individuals with cytokine production in ex-vivo T cell assay IL-13” value came out at 19%. Further, in data set [1], the “% HDM allergic individuals with cytokine production in ex-vivo T cell assay IL-17” value is given as 6%, the “% HDM allergic individuals with cytokine production in ex-vivo T cell assay IL-31” value stood at 6%, the “% HDM allergic individuals with cytokine production in ex-vivo T cell assay INF-g” value was determined as 0% and the “% non-allergic individuals with cytokine production in ex-vivo T cell assay IL-5” value came out at 0%. Moreover, in data set [1], the “% non-allergic individuals with cytokine production in ex-vivo T cell assay IL-9” value is listed as 0%, the “% non-allergic individuals with cytokine production in ex-vivo T cell assay IL-10” value is listed as 0%, the “% non-allergic individuals with cytokine production in ex-vivo T cell assay IL-13” value came to 0% and the “% non-allergic individuals with cytokine production in ex-vivo T cell assay IL-17” value is on record as 0%. Moreover, in data set [1], the “% non-allergic individuals with cytokine production in ex-vivo T cell assay IL-31” value came to 0% and the “% non-allergic individuals with cytokine production in ex-vivo T cell assay INF-g” value was 17%. Besides, in data set [2], the “% responders of in-vitro T cell proliferation test, Allergic” value was found to be 64% and the “% responders … Non-allergics” value is reported as 13%. Moreover, the “# of individuals of 14 with positive BAT test” value in data set [3] (1 ng/ml) turned out to be 0. In data set [3] (10 ng/ml), the “# of individuals of 14 with positive BAT test” value came out at 0. Moreover, the “# of individuals of 14 with positive BAT test” value in data set [3] (100 ng/ml) came to 0. In addition, the “# of individuals of 14 with positive BAT test” value in data set [3] (1000 ng/ml) came to 1.

B3: A012: house dust mite protein; SEQ ID NO: 22 (Der p), 38 (Der f), 310 (Blo t) (protein)
chain: QSRDRNDKPYRIVCYWGTWAFYRPASGKFQAENVNPNLCTHIMYGFAKLQNNKIALYDPDLDDGDEDWNSGLQWGHGMIRRMVNLRTYNPHLTTMISLGGWNEGSDKYSIMVRDPASRKIFIQSVLHLLAEFDLDGLDFDWEYPAMQASGDSDRKPGRAEDKEDFVTLLRELHEAFQPHGYVLSSAVSAGKPTIDRAYNIPEVSKYLDFINLMSYDYHGGWESHTGHNAPLNSYKNANELDKEFTVTYSVEYWLNHGVDPKKLVLGIPLYGRTFTLAGSEHGIGAPTIGKGGESGTITRTIGMLGYNEICTMIKQGWQLYRDEIERIPYAVHANQWIGYDDRESVNEKLNLLMAKHLGGAMVWSIDTDDFVGNCVGVKYPLLRSISKKLNNVDGPDPDIKRYHYHTSTAKPHTDGTTSTHHDHKTTTTKHHKTTQPHHKTTQPHHTQTITTTTERPHGKFQCHQAGFFADPENPRKFHQCVDFGGHLKDYEFMCGEGTHYDEKLHICVR
Turning to B3, in data set [1], the “% HDM allergic individuals with cytokine production in ex-vivo T cell assay IL-5” value was 69%, the “% HDM allergic individuals with cytokine production in ex-vivo T cell assay IL-9” value amounted to 25%, the “% HDM allergic individuals with cytokine production in ex-vivo T cell assay IL-10” value is recorded as 19% and the “% HDM allergic individuals with cytokine production in ex-vivo T cell assay IL-13” value is reported as 44%. Further, in data set [1], the “% HDM allergic individuals with cytokine production in ex-vivo T cell assay IL-17” value stood at 19%, the “% HDM allergic individuals with cytokine production in ex-vivo T cell assay IL-31” value is given as 0%, the “% HDM allergic individuals with cytokine production in ex-vivo T cell assay INF-g” value came out at 0% and the “% non-allergic individuals with cytokine production in ex-vivo T cell assay IL-5” value is given as 0%. In data set [1], the “% non-allergic individuals with cytokine production in ex-vivo T cell assay IL-9” value came to 0%, the “% non-allergic individuals with cytokine production in ex-vivo T cell assay IL-10” value worked out at 67%, the “% non-allergic individuals with cytokine production in ex-vivo T cell assay IL-13” value is recorded as 0% and the “% non-allergic individuals with cytokine production in ex-vivo T cell assay IL-17” value is 33%. In data set [1], the “% non-allergic individuals with cytokine production in ex-vivo T cell assay IL-31” value is given as 0% and the “% non-allergic individuals with cytokine production in ex-vivo T cell assay INF-g” value is given as 17%. Besides, in data set [2], the “% responders of in-vitro T cell proliferation test, Allergic” value is on record as 39% and the “% responders … Non-allergics” value worked out at 13%. In addition, the “# of individuals of 14 with positive BAT test” value in data set [3] (1 ng/ml) amounted to 0. The “# of individuals of 14 with positive BAT test” value in data set [3] (10 ng/ml) amounted to 0. Besides, in data set [3] (100 ng/ml), the “# of individuals of 14 with positive BAT test” value worked out at 0. Besides, the “# of individuals of 14 with positive BAT test” value in data set [3] (1000 ng/ml) is on record as 0.
